According to US20080081903A1, “METHOD FOR SCREENING TRANSCRIPTIONAL COREGULATORY PROTEINS OF TRANSCRIPTION FACTORS, AND ANDROGEN RECEPTOR TRANSCRIPTIONAL COREGULATORY PROTEINS AS TARGETS FOR ANDROGEN RECEPTOR-DEPENDENT DISEASES” (NEW YORK UNIVERSITY, priority 2001, published 2008):

Target: T1, androgen receptor N-terminus (AR18-500) (Rattus norvegicus, UniProt P15207)
T1 construct: receptor residues 18 through 500 (using the rat androgen receptor number scheme); expressed in transfected cells; host or cells: Saccharomyces cerevisiae EGY188
T1 sequence (P15207 18-500): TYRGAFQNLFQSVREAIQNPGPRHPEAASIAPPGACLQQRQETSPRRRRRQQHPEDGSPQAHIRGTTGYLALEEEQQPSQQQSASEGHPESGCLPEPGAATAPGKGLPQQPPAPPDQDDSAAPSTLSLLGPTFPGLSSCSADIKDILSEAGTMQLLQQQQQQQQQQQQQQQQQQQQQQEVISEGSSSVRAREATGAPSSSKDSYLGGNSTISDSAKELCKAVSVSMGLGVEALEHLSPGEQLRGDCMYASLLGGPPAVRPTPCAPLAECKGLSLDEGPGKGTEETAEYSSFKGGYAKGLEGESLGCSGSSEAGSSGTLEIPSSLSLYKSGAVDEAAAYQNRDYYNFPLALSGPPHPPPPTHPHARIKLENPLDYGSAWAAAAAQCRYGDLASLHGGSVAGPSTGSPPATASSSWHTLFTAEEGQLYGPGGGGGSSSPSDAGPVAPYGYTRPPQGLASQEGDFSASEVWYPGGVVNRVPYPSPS
Experiment: Modified yeast two-hybrid, quantitative liquid beta-galactosidase assay
Type: binding
Settings: LexA-ART fusions vs AR18-500; twelve hour incubation in galactose-containing media
Experimental: The modified yeast two hybrid assay is described in Hittelman et al., 1999. EGY188 was transformed by the lithium acetate method with (i) pJG4-5:AR18-500, (ii) pEG202:LNCaP cell cDNA library and (iii) pJK103, a β-galactosidase reporter gene with a single LexA operator. Potential interacting proteins were selected by plating the cDNA library expressing transformants onto galactose plates lacking leucine and containing X-gal.
Yeast were grown in selective liquid media containing 2% glucose for approximately 12 hours, pelleted, washed once with sterile H2O, normalized according to cell number and resuspended to an optical density (OD600) of 0.15 in 2% galactose/1% raffinose. β-galactosidase assays were performed 12 hours later as described previously (Garabedian et al., 1992).
Out of approximately one million library transformants, eight clones were isolated that interact with the androgen receptor N-terminus. There protein factors were termed ARTs, for Androgen Receptor Trapped, by the present inventors. The eight ART clones were sequenced and were subjected to a database search using the BLAST program. A quantitative liquid beta-galactosidase assay was used to measure the relative strength of interaction between the androgen receptor N-terminus and the ARTs using the yeast two-hybrid system. The levels of expression of the ARTs in yeast were similar, as determined by immunoblotting using an antibody to the LexA DNA-binding domain that is common to all of the ARTs.
ARTs expressed as fusion proteins with the LexA DNA binding domain were analyzed for their ability to interact with AR18-500. The relative strength of interaction was determined by a quantitative liquid beta-galactosidase assay after a twelve hour incubation in galactose-containing media at 30EC. The LexA vector alone gives 1 unit of activity.

B1: ART-5: Androgen Receptor Trapped protein, SEQ ID NO:4, unknown function, represented in EST database (protein)
chain: MHNPDGSASPTADPGSELQTLGQAARRPPPPRAGHDAPRRTRPSARKPLSCFSRRPMPTREPPKTRGSRGHLHTHPPGPGPPLQGLAPRGLKTSAPRPPCQPQPGPHKAKTKKIVFEDELLSQALLGAKKPIGAIPKGHKPRPHPVPDYELKYPPVSSERERSRYVAVFQDQYGEFLELQHEVGCAQAKLRQLEALLSSLPPPQSQKEAQVAARVWREFEMKRMDPGFLDKQARCHYLKGKLRHLKTQIQKFDDQGDSEGSVYF
modifications: Human
- relative strength of interaction with androgen receptor N-terminus: strongest
